This assay addresses CD44 on CD44-positive and CD133-positive glioma stem cells GSC20 (UniProt P16070 21-742). The assay can be described thus: cell-based or functional assay.

B1: fusion protein shown in SEQ ID NO. 7 (anti-CD44 single-chain antibody, CD28, truncated body of IL7Rα, CD3, T2A, anti-TIM3 single-chain antibody), expressed on … (other)
chain: QVQLVESGGGVVQPGRSLRLSCAASGFTFSSYGMHWVRQAPGKGLEWVAVIWYDGSNKFYADSVKGRFTISRDNSKNTLYLQMNSLRAEDTAVYYCARRSDYRGYYGMDVWGQGTTVTVSSGSTSGGGSGGGSGGGGSSEIVLTQSPATLSLSPGERATLSCRASQSVINYLAWYQQKPGQAPRLLIYDASNRASGIPARFSGSGSGTDFTLTISSLEPEDFAVYYCQQRRNWPLTFGGGTKVEIKTTTPAPRPPTPAPTIASQPLSLRPEACRPAAGGAVHTRGLDFACDIYIWAPLAGTCGVLLLSLVITLYCRSKRSRLLHSDYMNMTPRRPGPTRKHYQPYAPPRDFAAYRSKKRIKPIVWPSLPDHKKTLEHLCKKPRKNLNVSFNPESFLDCQIHRVDDIQARDEVEGFLQDTFPQQLEESEKQRLLGSNQEEAYVTMSSFYQNQRVKFSRSADAPAYKQGQNQLYNELNLGRREEYDVLDKRRGRDPEMGGKPRRKNPQEGLYNELQKDKMAEAYSEIGMKGERRRGKGHDGLYQGLSTATKDTYDALHMQALPPREGRGSLLTCGDVEENPGPMTNKCLLQIALLLCFSTTALSQVQLQQSGPGLVKPSHTLSLTCTVSGGSISSGGYYWSWTRQHPGMGLEWIGYISYSGSIYYTPSLKSRLTISVDTSKNQFSLKLSSVTAADTAVYYCASLDSWGSNRDYWGQGTLVTVSSGGGGSEIVLTQSPATLSLSPGERATLSCRASQSVSSYLAWYQQKPGQAPRLLIYDASNRATGIPARFSGSGSGTDFTLTISSLEPEDFAVYYCQQRSNWPLTFGGGTKVEIK
As to B1, the “Lysis rate of glioma stem cells by CAR-T cells (LDH release), effect-target ratio 1:1” value (“Lysis rate … effect-target ratio 1:1” below) worked out at 30.3%; the “Lysis rate of glioma stem cells by CAR-T cells (LDH release), effect-target ratio 2:1” value (“Lysis rate … effect-target ratio 2:1” below) was found to be 48.5%; the “Lysis rate of glioma stem cells by CAR-T cells (LDH release), effect-target ratio 3:1” value (“Lysis rate … effect-target ratio 3:1” below) was 51.2%; the “Lysis rate of glioma stem cells by CAR-T cells (LDH release), effect-target ratio 5:1” value (“Lysis rate … effect-target ratio 5:1” below) is 81.2%.

B2: fusion protein shown in SEQ ID NO. 3 (anti-CD44 single-chain antibody, CD28, CD3), expressed on CAR-T 1 cells (other)
chain: QVQLVESGGGVVQPGRSLRLSCAASGFTFSSYGMHWVRQAPGKGLEWVAVIWYDGSNKFYADSVKGRFTISRDNSKNTLYLQMNSLRAEDTAVYYCARRSDYRGYYGMDVWGQGTTVTVSSGSTSGGGSGGGSGGGGSSEIVLTQSPATLSLSPGERATLSCRASQSVINYLAWYQQKPGQAPRLLIYDASNRASGIPARFSGSGSGTDFTLTISSLEPEDFAVYYCQQRRNWPLTFGGGTKVEIKTTTPAPRPPTPAPTIASQPLSLRPEACRPAAGGAVHTRGLDFACDIYIWAPLAGTCGVLLLSLVITLYCRSKRSRLLHSDYMNMTPRRPGPTRKHYQPYAPPRDFAAYRSRVKFSRSADAPAYKQGQNQLYNELNLGRREEYDVLDKRRGRDPEMGGKPRRKNPQEGLYNELQKDKMAEAYSEIGMKGERRRGKGHDGLYQGLSTATKDTYDALHMQALPPR
Turning to B2, the “Lysis rate … effect-target ratio 1:1” value worked out at 9.93%; the “Lysis rate … effect-target ratio 2:1” value came out at 12.2%; the “Lysis rate … effect-target ratio 3:1” value came to 35%; the “Lysis rate … effect-target ratio 5:1” value came out at 57.3%.

B3: fusion protein shown in SEQ ID NO. 8 (anti-CD44 single-chain antibody, anti-CD133 single-chain antibody, CD28, truncated body of IL7Rα, CD3, T2A, anti-TIM3 … (other)
chain: QVQLVESGGGVVQPGRSLRLSCAASGFTFSSYGMHWVRQAPGKGLEWVAVIWYDGSNKFYADSVKGRFTISRDNSKNTLYLQMNSLRAEDTAVYYCARRSDYRGYYGMDVWGQGTTVTVSSGSTSGGGSGGGSGGGGSSEIVLTQSPATLSLSPGERATLSCRASQSVINYLAWYQQKPGQAPRLLIYDASNRASGIPARFSGSGSGTDFTLTISSLEPEDFAVYYCQQRRNWPLTFGGGTKVEIKGGGGSGGGGSGGGGSQVQLVQSGAEVKKPGASVKVSCKASGYTFTDFEMHWVRQAPGQGLEWMGDIDPGTGDTAYNLKFKGRVTMTTDTSTSTAYMELRSLRSDDTAVYYCALGAFVYWGQGTLVTVSSGSTSGGGSGGGSGGGGSSDVVMTQSPLSLPVTPGEPASISCRSSQSLANSYGNTYLSWYLQKPGQSPQLLIYGISNRFSGVPDRFSGSGSGTDFTLKISRVEAEDVGVYYCLQGTHQPYTFGQGTKLEIKTTTPAPRPPTPAPTIASQPLSLRPEACRPAAGGAVHTRGLDFACDIYIWAPLAGTCGVLLLSLVITLYCRSKRSRLLHSDYMNMTPRRPGPTRKHYQPYAPPRDFAAYRSKKRIKPIVWPSLPDHKKTLEHLCKKPRKNLNVSFNPESFLDCQIHRVDDIQARDEVEGFLQDTFPQQLEESEKQRLLGSNQEEAYVTMSSFYQNQRVKFSRSADAPAYKQGQNQLYNELNLGRREEYDVLDKRRGRDPEMGGKPRRKNPQEGLYNELQKDKMAEAYSEIGMKGERRRGKGHDGLYQGLSTATKDTYDALHMQALPPREGRGSLLTCGDVEENPGPMTNKCLLQIALLLCFSTTALSQVQLQQSGPGLVKPSHTLSLTCTVSGGSISSGGYYWSWTRQHPGMGLEWIGYISYSGSIYYTPSLKSRLTISVDTSKNQFSLKLSSVTAADTAVYYCASLDSWGSNRDYWGQGTLVTVSSGGGGSEIVLTQSPATLSLSPGERATLSCRASQSVSSYLAWYQQKPGQAPRLLIYDASNRATGIPARFSGSGSGTDFTLTISSLEPEDFAVYYCQQRSNWPLTFGGGTKVEIK
On to B3, for which the “Lysis rate … effect-target ratio 1:1” value turned out to be 31.1%; the “Lysis rate … effect-target ratio 2:1” value was found to be 50%; the “Lysis rate … effect-target ratio 3:1” value was 62.8%; the “Lysis rate … effect-target ratio 5:1” value worked out at 86.8%.

B4: fusion protein shown in SEQ ID NO. 4 (anti-CD44 single-chain antibody, anti-CD133 single-chain antibody, CD28, CD3), expressed on CAR-T 2 cells (other)
chain: QVQLVESGGGVVQPGRSLRLSCAASGFTFSSYGMHWVRQAPGKGLEWVAVIWYDGSNKFYADSVKGRFTISRDNSKNTLYLQMNSLRAEDTAVYYCARRSDYRGYYGMDVWGQGTTVTVSSGSTSGGGSGGGSGGGGSSEIVLTQSPATLSLSPGERATLSCRASQSVINYLAWYQQKPGQAPRLLIYDASNRASGIPARFSGSGSGTDFTLTISSLEPEDFAVYYCQQRRNWPLTFGGGTKVEIKGGGGSGGGGSGGGGSQVQLVQSGAEVKKPGASVKVSCKASGYTFTDFEMHWVRQAPGQGLEWMGDIDPGTGDTAYNLKFKGRVTMTTDTSTSTAYMELRSLRSDDTAVYYCALGAFVYWGQGTLVTVSSGSTSGGGSGGGSGGGGSSDVVMTQSPLSLPVTPGEPASISCRSSQSLANSYGNTYLSWYLQKPGQSPQLLIYGISNRFSGVPDRFSGSGSGTDFTLKISRVEAEDVGVYYCLQGTHQPYTFGQGTKLEIKTTTPAPRPPTPAPTIASQPLSLRPEACRPAAGGAVHTRGLDFACDIYIWAPLAGTCGVLLLSLVITLYCRSKRSRLLHSDYMNMTPRRPGPTRKHYQPYAPPRDFAAYRSRVKFSRSADAPAYKQGQNQLYNELNLGRREEYDVLDKRRGRDPEMGGKPRRKNPQEGLYNELQKDKMAEAYSEIGMKGERRRGKGHDGLYQGLSTATKDTYDALHMQALPPR
In the case of B4, the “Lysis rate … effect-target ratio 1:1” value was determined as 14%; the “Lysis rate … effect-target ratio 2:1” value was determined as 23.2%; the “Lysis rate … effect-target ratio 3:1” value was 41%; the “Lysis rate … effect-target ratio 5:1” value amounted to 56.9%.

B5: fusion protein shown in SEQ ID NO. 5 (anti-CD44 single-chain antibody, CD28, truncated body of IL7Rα, CD3), expressed on CAR-T 3 cells (other)
chain: QVQLVESGGGVVQPGRSLRLSCAASGFTFSSYGMHWVRQAPGKGLEWVAVIWYDGSNKFYADSVKGRFTISRDNSKNTLYLQMNSLRAEDTAVYYCARRSDYRGYYGMDVWGQGTTVTVSSGSTSGGGSGGGSGGGGSSEIVLTQSPATLSLSPGERATLSCRASQSVINYLAWYQQKPGQAPRLLIYDASNRASGIPARFSGSGSGTDFTLTISSLEPEDFAVYYCQQRRNWPLTFGGGTKVEIKTTTPAPRPPTPAPTIASQPLSLRPEACRPAAGGAVHTRGLDFACDIYIWAPLAGTCGVLLLSLVITLYCRSKRSRLLHSDYMNMTPRRPGPTRKHYQPYAPPRDFAAYRSKKRIKPIVWPSLPDHKKTLEHLCKKPRKNLNVSFNPESFLDCQIHRVDDIQARDEVEGFLQDTFPQQLEESEKQRLLGSNQEEAYVTMSSFYQNQRVKFSRSADAPAYKQGQNQLYNELNLGRREEYDVLDKRRGRDPEMGGKPRRKNPQEGLYNELQKDKMAEAYSEIGMKGERRRGKGHDGLYQGLSTATKDTYDALHMQALPPR
Regarding B5, the “Lysis rate … effect-target ratio 1:1” value stood at 15.2%; the “Lysis rate … effect-target ratio 2:1” value was 35.2%; the “Lysis rate … effect-target ratio 3:1” value stood at 44%; the “Lysis rate … effect-target ratio 5:1” value was determined as 62.5%.

B6: fusion protein shown in SEQ ID NO. 6 (anti-CD44 single-chain antibody, CD28, CD3, T2A, anti-TIM3 single-chain antibody), expressed on CAR-T 4 cells (other)
chain: QVQLVESGGGVVQPGRSLRLSCAASGFTFSSYGMHWVRQAPGKGLEWVAVIWYDGSNKFYADSVKGRFTISRDNSKNTLYLQMNSLRAEDTAVYYCARRSDYRGYYGMDVWGQGTTVTVSSGSTSGGGSGGGSGGGGSSEIVLTQSPATLSLSPGERATLSCRASQSVINYLAWYQQKPGQAPRLLIYDASNRASGIPARFSGSGSGTDFTLTISSLEPEDFAVYYCQQRRNWPLTFGGGTKVEIKTTTPAPRPPTPAPTIASQPLSLRPEACRPAAGGAVHTRGLDFACDIYIWAPLAGTCGVLLLSLVITLYCRSKRSRLLHSDYMNMTPRRPGPTRKHYQPYAPPRDFAAYRSRVKFSRSADAPAYKQGQNQLYNELNLGRREEYDVLDKRRGRDPEMGGKPRRKNPQEGLYNELQKDKMAEAYSEIGMKGERRRGKGHDGLYQGLSTATKDTYDALHMQALPPREGRGSLLTCGDVEENPGPMTNKCLLQIALLLCFSTTALSQVQLQQSGPGLVKPSHTLSLTCTVSGGSISSGGYYWSWTRQHPGMGLEWIGYISYSGSIYYTPSLKSRLTISVDTSKNQFSLKLSSVTAADTAVYYCASLDSWGSNRDYWGQGTLVTVSSGGGGSEIVLTQSPATLSLSPGERATLSCRASQSVSSYLAWYQQKPGQAPRLLIYDASNRATGIPARFSGSGSGTDFTLTISSLEPEDFAVYYCQQRSNWPLTFGGGTKVEIK
B6: the “Lysis rate … effect-target ratio 1:1” value stood at 22.2%; the “Lysis rate … effect-target ratio 2:1” value worked out at 37.3%; the “Lysis rate … effect-target ratio 3:1” value is 56.2%; the “Lysis rate … effect-target ratio 5:1” value came out at 61.4%.

The values above are taken from patent US20230322940A1 (published 2023).
